First the molecules themselves.
B1: GST-PUB30 (plant U-box E3 ligase PUB30) (enzyme)
chain: MPMFQPLKRDGLIGFEGGGDGQVLDLDTAVKDGVLGGVNGGGVGVVDEKLDLKKMIKELDLQDIPSVFICPISLEPMQDPVTLCTGQTYERLNIHKWFNLGHLTCPTTMQELWDDTVTPNKTLHHLIYTWFSQKYVLMKKRSEDVQGRAIEILGTLKKAKGQARVHALSELKQIVIAHLMARKTVVEEGGVSVISSLLGPFTSHAVGSEVVAILVSLDLDSDSKSGLMQPAKVSLIVDMLNDGSNETKINCARLIRGLVEEKGFRAELVSSHSLLVGLMRLVKDKRHRNGVSPALRLLKPISVHKQVRSLMVSIGAVPQLVDILPSLDPECLELALFVLDALCTDVEGRVAVKDSANTIPYTVRVLMRVSENCTNYALSILWSVCKLAPEECSPLAVEVGLAAKLLLVIQSGCDAALKQRSAELLKLCSLHYSDTMFISKCKLTRTIQ
B2: MBP-fused full-length ER cytoplasmic domain (MBP-ER_CD) (domain or fragment, Arabidopsis, UniProt Q42371 602-976, looked up)
chain: CRPHNPPPFLDGSLDKPVTYSTPKLVILHMNMALHVYEDIMRMTENLSEKYIIGHGASSTVYKCVLKNCKPVAIKRLYSHNPQSMKQFETELEMLSSIKHRNLVSLQAYSLSHLGSLLFYDYLENGSLWDLLHGPTKKKTLDWDTRLKIAYGAAQGLAYLHHDCSPRIIHRDVKSSNILLDKDLEARLTDFGIAKSLCVSKSHTSTYVMGTIGYIDPEYARTSRLTEKSDVYSYGIVLLELLTRRKAVDDESNLHHLIMSKTGNNEVMEMADPDITSTCKDLGVVKKVFQLALLCTKRQPNDRPTMHQVTRVLGSFMLSEQPPAATDTSATLAGSCYVDEYANLKTPHSVNCSSMSASDAQLFLRFGQVISQNSE
notes: ERECTA (ER) LRR receptor kinase, Arabidopsis; full-length cytoplasmic domain (juxtamembrane domain, kinase domain, C-terminal tail); source: expressed and purified (recombinantly purified)
B3: MBP-ER_CD_(T/S8E), phosphomimetic version (domain or fragment, Arabidopsis, UniProt Q42371 602-976, looked up)
chain: B2 chain with T346E, S349E, S353E, S354E, S356E, S358E, S371E, S374E
notes: ERECTA (ER), Arabidopsis; source: recombinantly purified
B4: GST-BKI1 (BRI1 KINASE INHIBITOR 1) (natural protein, Arabidopsis, UniProt Q9FMZ0 1-337, looked up)
chain: METNLQQVKNSSQTFSEKQNPKQEASPSPISSTCSSPSHDFSFTISLQPLSSSSKHISPTLRSPSKTTSSYQQTDPFAVDLSPADEIFFHGHLLPLHLLSHLPVSPRTSTGSYNDGFTLPVKDILPDQPTNNNNNTENAITNISTEAKDDNTEDKAEGEIRVKTKPIKSFSLFGLSKWRKGFESNEREQEQQQQKIKKPMSLDLSHAVKKYIRMLFQKRGNGTQFWNRRQTSSYSFSSSLMGPNGNSKTMINGSYNKRDLIRGRRGELFSAPASMRTSPTNSGHLRVSTAGLSSSSGSTSSSSSDSTMEELQAAIQAAIAHCKNSSAVDRDDKVKDS
notes: source: recombinantly purified

In assay [1] the target is GST-BKI1 (BRI1 KINASE INHIBITOR 1) (Arabidopsis) (UniProt Q9FMZ0). The experiment in a line: BLI; recombinantly purified GST-BKI1 or GST-PUB30 and MBP-ER_CD variants at seven concentrations (156.25, 312.5, 625, 1,250, 2,500, 5,000 and 10,000 nM); representative of three independent experiments.
Assay [2] deals with T1, GST-PUB30 (plant U-box E3 ligase PUB30) (Arabidopsis, UniProt Q058P4 1-448).
T1 construct: U-box E3 ubiquitin ligase PUB30, Arabidopsis; source: recombinantly purified
T1 sequence (looked up): B1 chain
The assay is described as above.

In assay [3] the target is T2, MBP-ER_CD_(T/S8E), phosphomimetic version (Arabidopsis, UniProt Q42371 602-976, Thr947 (T/S8E) | Ser950 (T/S8E) | Ser954 (T/S8E) | Ser955 (T/S8E) | Ser957 …).
T2 sequence: B2 chain with T346E, S349E, S353E, S354E, S356E, S358E, S371E, S374E
Description: BLI.

Assay [4] deals with T3, MBP-ER_CD_(T/S8A), phosphonull version (Arabidopsis, UniProt Q42371 602-976, Thr947 (T/S8A) | Ser950 (T/S8A) | Ser954 (T/S8A) | Ser955 (T/S8A) | Ser957 …).
T3 sequence: B2 chain with T346A, S349A, S353A, S354A, S356A, S358A, S371A, S374A
Description: BLI. On the technique in general: Biolayer interferometry detects binding as a change in optical thickness at a sensor tip.

In assay [5] the target is T4, MBP-ER_CD_(T/S8A), phosphonull version (Arabidopsis, UniProt Q42371 602-976, Thr947 (T/S8A) | Ser950 (T/S8A) | Ser954 (T/S8A) | Ser955 (T/S8A) | Ser957 …).
T4 construct: ERECTA (ER), Arabidopsis; The eight sites: six detected (Thr947, Ser950, Ser954, Ser955, Ser957, Ser972); source: recombinantly purified
T4 sequence (looked up): B2 chain with T346A, S349A, S353A, S354A, S356A, S358A, S371A, S374A
Description: BLI; recombinantly purified GST-BKI1 or GST-PUB30 and MBP-ER_CD variants at seven concentrations (156.25, 312.5, 625, 1,250, 2,500, 5,000 and 10,000 nM); representative of three independent experiments. Particulars: both partners purified.

Assay [6] concerns the target B2. Described as above. The note with it: both partners purified.

Where a chain is given by its changes, count along the chain named. Names may count otherwise. Where two headings read alike, the source gives them in different places.

The term Kd denotes the concentration at which binding is half-saturated.

Turning to “MBP-ER_CD_(ΔCTα-Helix) (domain or fragment)”, the Kd was 47.7 µM in assay [1] and 0.805 µM in assay [2].
B1: the Kd in assay [3] was determined as 0.194 µM; in assay [4], 9.5 µM.
Turning to B2, the Kd in assay [2] (both partners purified) is 0.393 ± 0.048 µM.
B3: the binding result in assay [2] (both partners purified) was “binds”.
In the case of B4, the Kd in assay [3] was found to be 18 µM; in assay [4] it was 3.8 µM; in assay [6], 3.7 ± 0.7 µM. Also, the binding result in assay [5] is on record as “binds”.

The values above are taken from article doi:10.1101/2024.09.20.612365, “Preventing Inappropriate Signals Pre- and Post-Ligand Perception by a Toggle-Switch Mechanism of ERECTA” (bioRxiv, 2024).
